Laboratory results reported in paper PMC7838873, “Purification and Characterization of Recombinant Expressed Apple Allergen Mal d 1” (Methods and Protocols, 2020).

Key:
[1] = biological target: recombinant apple allergen Mal d 1 with a C-terminal polyhistidine-tag (apple (Malus domestica)) (UniProt Q9SYW3); test: SDS-PAGE without added reducing agent + in-gel tryptic digestion with HPLC-MS/MS; purified protein after storage at -20 °C, freeze-thawing or freeze-drying (Tris, phosphate or urea buffer); denatured at 95 °C in SDS Laemmli sample buffer, Coomassie stain, band proportions by Fiji; band of higher molecular weight identified by peptides; dimer survives SDS, probably held by a disulfide bridge
[2] = biological target: the molecule itself; test: as above

Row | Molecule | stoichiometry N [1] | stoichiometry N [2]
1 | recombinant apple allergen Mal d 1 with a C-terminal polyhistidine-tag (from UniProt Q9SYW3 1-159) (natural protein) | 2 | 
2 | recombinant apple allergen Mal d 1 without polyhistidine-tag (natural protein, apple (Malus domestica), UniProt Q9SYW3 1-159, looked up, n = 159 residues used for the CD calculation; pET-28b(+) vector, NcoI/XhoI, insert 485 bp; also called r-Mal d 1; source: E. coli BL21 star (DE3)pLysS, purified (anion-exchange chromatography, TOYOPEARL SuperQ-650S or GigaCap Q-650M)) MGVYTFENEFTSEIPPSRLFKAFVLDADNLIPKIAPQAIKQAEILEGNGGPGTIKKITFGEGSQYGYVKHRIDSIDEASYSYSYTLIEGDALTDTIEKISYETKLVACGSGSTIKSISHYHTKGNIEIKEEHVKAGKEKAHGLFKLIESYLKDHPDAYN |  | 2
